The target in this assay is human IGF2R extra-cellular domains 1-15 I1572A fused at the C-terminal to rat CD4 (domains 3 + 4), biotin acceptor domain and histidine tag (human) (UniProt P11717). Description: SPR; BIAcore T200; about 1800 RU of biotinylated CD4-IGF2R fusion protein immobilised on a CM5 chip loaded with streptavidin; IGF2 256 to 0.125 nM injected for 200 s, 25 °C, 40 μl/min, HBS-EP; 1:1 binding model and steady state analysis.
Chain of human IGF2R extra-cellular domains 1-15 I1572A fused at the C-terminal to rat CD4 (domains 3 + 4), biotin acceptor domain and histidine tag (human) (P11717 41-2304 I1572A): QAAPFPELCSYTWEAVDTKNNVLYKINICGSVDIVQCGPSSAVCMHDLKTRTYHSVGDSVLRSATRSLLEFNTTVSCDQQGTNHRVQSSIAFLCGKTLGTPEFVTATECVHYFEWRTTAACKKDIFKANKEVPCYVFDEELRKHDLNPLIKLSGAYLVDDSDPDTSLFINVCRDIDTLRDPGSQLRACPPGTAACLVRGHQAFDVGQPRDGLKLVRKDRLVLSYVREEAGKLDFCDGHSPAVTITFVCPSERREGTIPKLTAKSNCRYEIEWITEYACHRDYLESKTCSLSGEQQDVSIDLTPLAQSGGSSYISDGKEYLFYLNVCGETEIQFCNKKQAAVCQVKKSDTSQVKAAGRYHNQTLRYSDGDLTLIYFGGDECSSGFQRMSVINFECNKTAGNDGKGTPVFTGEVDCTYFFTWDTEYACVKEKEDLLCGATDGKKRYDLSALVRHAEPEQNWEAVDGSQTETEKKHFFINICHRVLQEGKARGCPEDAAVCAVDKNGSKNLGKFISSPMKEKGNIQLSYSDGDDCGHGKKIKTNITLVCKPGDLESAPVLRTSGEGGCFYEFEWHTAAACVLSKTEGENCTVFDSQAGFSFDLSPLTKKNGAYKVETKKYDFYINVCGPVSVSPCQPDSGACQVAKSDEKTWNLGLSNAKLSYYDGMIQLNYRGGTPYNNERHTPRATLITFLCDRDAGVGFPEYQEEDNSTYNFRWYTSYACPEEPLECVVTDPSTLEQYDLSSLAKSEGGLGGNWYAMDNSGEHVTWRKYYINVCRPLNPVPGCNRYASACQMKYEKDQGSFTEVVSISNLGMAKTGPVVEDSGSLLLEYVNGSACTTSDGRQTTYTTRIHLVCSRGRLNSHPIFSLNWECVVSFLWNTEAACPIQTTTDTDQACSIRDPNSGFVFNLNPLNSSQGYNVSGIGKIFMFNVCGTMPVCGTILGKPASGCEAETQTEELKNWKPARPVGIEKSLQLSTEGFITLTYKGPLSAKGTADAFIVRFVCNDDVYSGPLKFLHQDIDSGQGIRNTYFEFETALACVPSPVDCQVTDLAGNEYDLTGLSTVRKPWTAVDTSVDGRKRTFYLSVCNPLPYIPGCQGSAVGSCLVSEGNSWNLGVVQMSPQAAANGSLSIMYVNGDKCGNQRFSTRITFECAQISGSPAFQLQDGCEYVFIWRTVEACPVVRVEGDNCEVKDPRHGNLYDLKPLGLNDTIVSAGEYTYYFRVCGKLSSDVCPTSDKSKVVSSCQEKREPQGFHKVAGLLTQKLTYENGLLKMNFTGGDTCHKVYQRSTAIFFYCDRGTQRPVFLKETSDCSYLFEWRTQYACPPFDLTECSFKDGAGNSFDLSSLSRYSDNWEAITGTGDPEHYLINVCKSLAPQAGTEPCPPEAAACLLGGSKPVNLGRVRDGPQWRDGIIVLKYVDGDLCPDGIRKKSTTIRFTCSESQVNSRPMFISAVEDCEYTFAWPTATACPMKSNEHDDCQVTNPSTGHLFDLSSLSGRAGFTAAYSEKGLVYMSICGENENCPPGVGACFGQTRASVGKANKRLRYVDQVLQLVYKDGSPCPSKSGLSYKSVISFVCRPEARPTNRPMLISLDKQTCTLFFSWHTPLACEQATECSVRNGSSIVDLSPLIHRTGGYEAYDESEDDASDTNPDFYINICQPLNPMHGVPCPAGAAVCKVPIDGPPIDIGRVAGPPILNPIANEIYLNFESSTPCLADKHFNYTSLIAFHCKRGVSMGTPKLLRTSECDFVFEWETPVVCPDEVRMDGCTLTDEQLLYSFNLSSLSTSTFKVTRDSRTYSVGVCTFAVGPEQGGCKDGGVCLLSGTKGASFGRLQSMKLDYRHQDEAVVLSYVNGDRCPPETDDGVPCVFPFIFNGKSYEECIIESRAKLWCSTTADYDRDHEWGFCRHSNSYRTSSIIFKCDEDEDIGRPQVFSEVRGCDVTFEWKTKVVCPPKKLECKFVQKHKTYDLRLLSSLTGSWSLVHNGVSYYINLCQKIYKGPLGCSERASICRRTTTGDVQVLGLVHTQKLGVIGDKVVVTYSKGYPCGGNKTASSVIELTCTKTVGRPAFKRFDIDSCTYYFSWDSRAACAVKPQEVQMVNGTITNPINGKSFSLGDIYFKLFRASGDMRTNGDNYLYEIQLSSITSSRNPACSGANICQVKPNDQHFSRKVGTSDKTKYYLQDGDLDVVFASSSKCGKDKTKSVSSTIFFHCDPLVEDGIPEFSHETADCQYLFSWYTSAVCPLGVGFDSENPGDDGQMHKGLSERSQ

Take human IGF2 (ligand): the fold reduction of IGF2 binding against wild type came to 100 fold.

Values taken from publication PMC6684648.
